Columns and labels:
[1] = target: AviB-tagged BG505 SOSIP.v4.2 trimer (HIV-1); test: BLI
[2] = target: AviB-tagged BG505 SOSIP.664 A316W trimer (HIV-1); test: BLI

## soluble CD4 (domain or fragment)
[1]
  fold reduction of affinity against the wild-type trimer: 2.4 fold
[2]
  fold reduction of affinity against the wild-type trimer: 2.4 fold

Source: PMC4732737
